Literature values, collected in article PMC4277939.

Target: EAG channel PAS domain PAS domain (Mus musculus) (UniProt Q60603)

Kd: 10 µM
Substance: EAG channel CNBh domain CNBh domain (from UniProt Q60603)
